Measured values reported in publication PMC7492416 (Nature plants, 2020).

T1: SUMM2-GFP (Arabidopsis thaliana (Col-0 cDNA), UniProt P60838 1-894)
T1 sequence (looked up): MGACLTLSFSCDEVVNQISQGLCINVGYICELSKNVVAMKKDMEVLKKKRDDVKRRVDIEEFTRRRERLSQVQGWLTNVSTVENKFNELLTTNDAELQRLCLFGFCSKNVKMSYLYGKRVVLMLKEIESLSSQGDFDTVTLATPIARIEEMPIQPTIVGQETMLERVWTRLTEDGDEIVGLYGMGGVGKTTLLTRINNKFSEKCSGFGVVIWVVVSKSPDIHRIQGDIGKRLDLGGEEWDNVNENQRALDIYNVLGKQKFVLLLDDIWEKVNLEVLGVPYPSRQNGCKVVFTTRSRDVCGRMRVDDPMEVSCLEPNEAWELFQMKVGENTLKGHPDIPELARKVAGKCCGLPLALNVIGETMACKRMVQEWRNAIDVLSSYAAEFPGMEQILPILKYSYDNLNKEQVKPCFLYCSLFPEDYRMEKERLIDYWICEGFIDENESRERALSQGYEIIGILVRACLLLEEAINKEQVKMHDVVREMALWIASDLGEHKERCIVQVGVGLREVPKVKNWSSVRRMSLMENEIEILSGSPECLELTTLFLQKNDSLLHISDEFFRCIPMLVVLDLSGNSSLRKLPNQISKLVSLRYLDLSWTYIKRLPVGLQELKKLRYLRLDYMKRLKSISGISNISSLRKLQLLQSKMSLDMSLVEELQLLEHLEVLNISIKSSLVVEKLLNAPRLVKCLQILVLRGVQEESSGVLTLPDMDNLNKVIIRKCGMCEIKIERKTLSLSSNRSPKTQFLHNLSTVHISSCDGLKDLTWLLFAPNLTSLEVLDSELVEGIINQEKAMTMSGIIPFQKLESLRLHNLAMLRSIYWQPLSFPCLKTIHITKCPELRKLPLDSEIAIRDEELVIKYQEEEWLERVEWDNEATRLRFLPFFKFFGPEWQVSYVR

T2: BIR2-mCherry (UniProt Q9LSI9 29-605)
T2 sequence (looked up): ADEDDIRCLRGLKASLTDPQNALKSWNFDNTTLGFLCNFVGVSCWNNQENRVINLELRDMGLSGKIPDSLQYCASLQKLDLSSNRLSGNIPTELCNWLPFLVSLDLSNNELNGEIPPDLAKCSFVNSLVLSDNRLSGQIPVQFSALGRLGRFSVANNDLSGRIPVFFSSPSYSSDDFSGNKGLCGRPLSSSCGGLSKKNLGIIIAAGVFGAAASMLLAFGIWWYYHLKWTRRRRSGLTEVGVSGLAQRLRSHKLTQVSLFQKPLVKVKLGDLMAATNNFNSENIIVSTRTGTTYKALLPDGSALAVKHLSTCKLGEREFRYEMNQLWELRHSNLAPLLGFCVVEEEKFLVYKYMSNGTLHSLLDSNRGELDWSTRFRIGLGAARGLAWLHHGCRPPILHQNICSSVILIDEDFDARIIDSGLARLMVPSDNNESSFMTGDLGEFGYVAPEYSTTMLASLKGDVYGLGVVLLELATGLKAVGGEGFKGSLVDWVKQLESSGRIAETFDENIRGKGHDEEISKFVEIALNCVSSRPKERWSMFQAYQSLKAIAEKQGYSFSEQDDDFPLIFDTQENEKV

B1: MEKK2-mCherry (natural protein, Arabidopsis thaliana (Col-0 cDNA), UniProt O81472 1-773, looked up)
chain: MKKSSDKSPVRQHDTATQINSDAVSSSTSFTDSDSTCSFLTPSMEFPDRISFRRIDFSEAAPTGVVLPSTSSELTRSNSSENKIPNEDISVSTSSRYLVFDKILALMKKSPGRRGDKTSPARRLDRSDAVRRNIDYDAGEDSSSLLITRSLDFPNRTSFRVDGVDDGEIDRIYQYIGVSGPEDFAISSDAWKARMEHERSSSDVVNKLKSLDLDSREAGPSGGVVASSSMNHKFQGHDLSEAGSIGVVVASNFTLSESNKIENLNSLRDKEIVDGDMVENRCGIERKPTILVKSRGYLVHNDDVGVGGGIKGVRPPVLNVPRADKEVVDGGTVESKSGIEWKPTILVKSKGYLVSNDGGIKGVTSPVLNLRPTDKEVVDSGTVENRRGIKGVRPSVLKPPPVMKLPPVDLPGSSWDILTHFAPDSEIVRRPSSSSSSENGCDEEEAEDDKVEKEETGDMFIQLEDTTDEACSFTTNEGDSSSTVSNTSPICVSGGSINTSWQKGQLLRQGSFGSVYEAISEDGDFFAVKEVSLLDQGSQAQECIQQLEGEIALLSQLEHQNILRYRGTDKDGSNLYIFLELVTQGSLLELYRRYQIRDSLISLYTKQILDGLKYLHHKGFIHRDIKCATILVDANGTVKLADFGLAKVSKLNDIKSRKETLFWMAPEVINRKDNDGYRSPADIWSLGCTVLEMCTGQIPYSDLEPVEALFRIRRGTLPEVPDTLSLDARHFILKCLKLNPEERPTATELLNHPFVRRPLPSSGSGSTSPLIRR
B2: LET1-GFP (receptor, Arabidopsis thaliana (Col-0 cDNA), UniProt O22187 29-834, looked up)
chain: DTSTYTRPENFYVNCGSDSNVFYGGQTFVGDTNSSTNSVSFTNKGTEVINDQSSVAPEIYRTVRIFRHPSSYKFKLDSLGLHFVRLHFSVVFSRADLLTARFTVSATSGSNHHLKSFSPQNLTNTPRVEEFLLMMNSLEFEIRFVPDHSSLALINAIEVFSAPDDLEIPSASDKNLHTIYRLNVGGEKITPDNDTLGRTWLPDDDDFLYRKDSARNINSTQTPNYVGGLSSATDSTAPDFVYKTAKAMNRSSNEQVGMLMNVTWSFKVKSNHRHFIRIHFSDILSNLSNSDSDFYLFVNGYWRVDVKPSEQPRLASPFFKDVVNVSDGSGLLNISIGTKEANKDAGFLNGLEMMEVLSKSGSDYSNRSSSRVHIITGCAVAAAAASALVFSLLFMVFLKRRRSKKTKPEVEGTVWSPLPLHRGGSSDNRPISQYHNSPLRNLHLGLTIPFTDILSATNNFDEQLLIGKGGFGYVYKAILPDGTKAAIKRGKTGSGQGILEFQTEIQVLSRIRHRHLVSLTGYCEENSEMILVYEFMEKGTLKEHLYGSNLPSLTWKQRLEICIGAARGLDYLHSSGSEGAIIHRDVKSTNILLDEHNIAKVADFGLSKIHNQDESNISINIKGTFGYLDPEYLQTHKLTEKSDVYAFGVVLLEVLFARPAIDPYLPHEEVNLSEWVMFCKSKGTIDEILDPSLIGQIETNSLKKFMEIAEKCLKEYGDERPSMRDVIWDLEYVLQLQMMTNRREAHEEDSTAINSGGSLVAPRLMVSDSFSTNSIFQNGDESKNRFGFTDSSETRVFSQLKISDAR
B3: BAK1-GFP (receptor, Arabidopsis, UniProt Q94F62 26-615, looked up)
chain: NAEGDALSALKNSLADPNKVLQSWDATLVTPCTWFHVTCNSDNSVTRVDLGNANLSGQLVMQLGQLPNLQYLELYSNNITGTIPEQLGNLTELVSLDLYLNNLSGPIPSTLGRLKKLRFLRLNNNSLSGEIPRSLTAVLTLQVLDLSNNPLTGDIPVNGSFSLFTPISFANTKLTPLPASPPPPISPTPPSPAGSNRITGAIAGGVAAGAALLFAVPAIALAWWRRKKPQDHFFDVPAEEDPEVHLGQLKRFSLRELQVASDNFSNKNILGRGGFGKVYKGRLADGTLVAVKRLKEERTQGGELQFQTEVEMISMAVHRNLLRLRGFCMTPTERLLVYPYMANGSVASCLRERPESQPPLDWPKRQRIALGSARGLAYLHDHCDPKIIHRDVKAANILLDEEFEAVVGDFGLAKLMDYKDTHVTTAVRGTIGHIAPEYLSTGKSSEKTDVFGYGVMLLELITGQRAFDLARLANDDDVMLLDWVKGLLKEKKLEALVDVDLQGNYKDEEVEQLIQVALLCTQSSPMERPKMSEVVRMLEGDGLAERWEEWQKEEMFRQDFNYPTHHPAVSGWIIGDSTSQIENEYPSGPR

Key:
Assay in all cases: FRET or BRET
SUMM2-GFP = molecular target: T1, SUMM2-GFP
MEKK2-mCherry = molecular target: B1
BIR2-mCherry = molecular target: T2, BIR2-mCherry

Binder: B1
- FRET efficiency (SUMM2-GFP): 7.99 ± 0.19%

Binder: B2
- FRET efficiency (MEKK2-mCherry): 13.1 ± 1.76%

Binder: B3
- FRET efficiency (BIR2-mCherry): 13.5%
